± gives the half width of the 95% confidence interval.
Tests used:
[1] = folding stability dG unfold from trypsin proteolysis; higher = more stable
Outline: (§1)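 Sequencing followed digestion of designed mini-proteins with trypsin and chymotrypsin, each at 11 concentrations in threefold dilutions together with a no-protease condition. The mini-proteins were under 80 residues, had no cysteine, sat in a PA-tagged cDNA display construct, and were kept only if AlphaFold2 dimer inter-PAE was above 15. From the counts, Bayesian fitting gave K50, and unfolding free energy was derived against a sequence-predicted unfolded-state K50 and a shared folded-state K50, per protease or combined.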

[2] = folding stability dG unfold from chymotrypsin proteolysis; higher = more stable
Outline: as §1

[3] = folding stability dG unfold (combined trypsin and chymotrypsin); higher = more stable
Outline: as §1

Sequence	folding stability dG unfold [1]	folding stability dG unfold [2]	folding stability dG unfold [3]
SAGMVKIEIEVKVEKDEDGRLRVTVRITIYDEKTGEKLKEIEIEVEAPSEEEAERAARKKAEELLKELSAGG [r19_255_TrROS_Hall]	3.9 ± 0.18 kcal/mol	2.58 ± 0.087 kcal/mol	3.25 ± 0.19 kcal/mol
SAGMVKTEPDPNSDIVRRTFTVQVPVRIPPGEWRELTIEVPFDEVYGPGGVPVDPVSEEEIEAAIKALLSAG [r5_239_JUSTAS]	0.966 ± 0.037 kcal/mol	1.15 ± 0.087 kcal/mol	1.07 ± 0.096 kcal/mol
SAGMVRIELRPRPDGRPIALIDVGAPGGPPRRFEIEVDETETLDDIAERLRAEGFDLPEGIDLEELAGSAGG [r19_263_TrMRF]	1.08 ± 0.018 kcal/mol	2.243 ± 0.011 kcal/mol	1.91 ± 0.044 kcal/mol
SAGMVTISVTRPSSGTYVLNISNPLTGETETITLSTADPAAFKATAEAIAAELEAKGYPVKINLTPTAGSAG [r5_815_JUSTAS]	3.6 ± 0.063 kcal/mol	3.788 ± 0.014 kcal/mol	3.73 ± 0.048 kcal/mol
SAGMVVLTEPGNGRLVVSELPEELAEEIARELGLPDITPVPPGVPAEEARAAHPALTAALEIPPEVLLSAGG [r19_270_JUSTAS]	-0.149 ± 0.16 kcal/mol	0.0886 ± 0.032 kcal/mol	0.0846 ± 0.14 kcal/mol
SAGMVVVEIRTRDGRTLTVEVEAESEEEAERLARELAEELRRKFPDLEIRVERVEPPEPPEEVVEEEEESAG [r5_950_TrROS_Hall]	3.23 ± 0.13 kcal/mol	3.41 ± 0.13 kcal/mol	3.42 ± 0.21 kcal/mol
SAGMYMVTITWEYPNGWTFEFMVFVRGPNPEEAREQVDEAAREIFEQRDHPIKDVKVDVQPMPPGQEISAGG [r19_335_TrROS]	1.96 ± 0.064 kcal/mol	3.18 ± 0.054 kcal/mol	2.84 ± 0.23 kcal/mol
SAGMYSETLLEEREYPDGTKEKLYRITKPGGVEELRLVREPLTFDPNNGGPGRKEEVKTAKPDEEIELESAG [r5_122_JUSTAS]	0.721 ± 0.026 kcal/mol	1.12 ± 0.14 kcal/mol	1.03 ± 0.1 kcal/mol
SAGNIKIEVEELGPGWYVIKVEIPYDSPEQMLDMIKDIIRDFFGEPVKIDEVEIDPDEGWIEKTIRIPLSAG [r5_810_TrROS]	1.58 ± 0.067 kcal/mol	1.64 ± 0.07 kcal/mol	1.67 ± 0.12 kcal/mol
SAGNIQIEPTDGKWRIRITYWMPDPDEITPDTFKNLLRNLGLPIKDIDIEPEPNPNGQRYVTAEIWIPVSAG [r5_922_TrROS]	2.84 ± 0.043 kcal/mol	3.34 ± 0.071 kcal/mol	3.23 ± 0.059 kcal/mol
SAGNKVEIMLMVPMKPDPDGEPEIDPQMIREIAKAAGAEGRVEDVDIQPMPDYYMIRVRLPGKEIWIMSAGG [r19_398_TrROS]	1.46 ± 0.031 kcal/mol	1.1 ± 0.13 kcal/mol	1.38 ± 0.11 kcal/mol
SAGNPPVTITITINPFRHGDEPMYHVKIKNPGGKEREIPFPPDEFKEQIENEFPNIDEIEVEPMRLPPGSAG [r5_25_TrROS]	0.207 ± 0.14 kcal/mol	0.615 ± 0.29 kcal/mol	0.408 ± 0.49 kcal/mol
SAGPAVVIPLPLDPEKWSPEEILEAAIKLAEEAYKAGLPGSVTLLVPVPEKPLLITIDPKTGKITVDPSAGG [r19_204_TrMRF]	1.49 ± 0.083 kcal/mol	1.73 ± 0.066 kcal/mol	1.63 ± 0.072 kcal/mol
SAGPEITREFVSYDPETGLRYFEYTLINKKNGKEVKKVKVGYSLYDLASGTERPLPEEELKKRAEEALKSAG [r5_909_JUSTAS]	-0.118 ± 0.13 kcal/mol	0.433 ± 0.16 kcal/mol	0.24 ± 0.16 kcal/mol
SAGPEPDWVYIKAKVDKGGIKIEWYNPDGPWEFKLPDGEEIYIFIPPGGSPEDMLDEFKNFAKELADKSAGG [r19_170_TrROS]	1.41 ± 0.22 kcal/mol	2.1 ± 0.21 kcal/mol	2.18 ± 0.71 kcal/mol
SAGPGHELKIDIERDPGNGIIKLSITYPNGIKYEMLIFRNPDNGKWFIFINIERDPGRIKIDIGIFPLSAGG [r19_394_TrROS]	3.28 ± 0.083 kcal/mol	5.05 ± 0.13 kcal/mol	4.7 ± 0.2 kcal/mol
SAGPIKEKTITFPNGMRAKITDIQVGPPPDGEPLIKLKVKVEMWQPKRDPDGKQDGWQPMKMEMTLIIPSAG [r5_476_TrROS]	2.68 ± 0.18 kcal/mol	3.91 ± 0.058 kcal/mol	3.51 ± 0.36 kcal/mol
SAGPIKIVVNPDGMLIMVFPHPDGSLMVMIFTFKPNPKNGKRRFEMEMIMIDPDPGDPHVMTMRFEIPPSAG [r5_424_TrROS]	3.37 ± 0.15 kcal/mol	4.88 ± 0.09 kcal/mol	4.08 ± 0.18 kcal/mol

Sequence	folding stability dG unfold [1]	folding stability dG unfold [2]	folding stability dG unfold [3]
SAGPKAEIINKNGKKISFSAKNIKITSYPEKGILTGIIPKKNKKIEIKVDNNKITLIVYDGGKYKEFPISAG [r5_786_TrMRF]	2.07 ± 0.071 kcal/mol	3.97 ± 0.22 kcal/mol	2.21 ± 0.55 kcal/mol
SAGPKIELEVDPENPNVARAKVIDPANGEEIDEVEVPVTTLPDGTVLVPAKIKYKGSGKTLELPFTVEGSAG [r5_610_TrMRF]	-0.4 ± 0.44 kcal/mol	0.133 ± 0.26 kcal/mol	-0.126 ± 0.28 kcal/mol
SAGPKTITIWFRSPEWIRKLAKELGFEIKKVKRTGDYWSVEFTREGGKNIEIHIPDDALKELGFDLDDISAG [r5_12_TrROS]	2.3 ± 0.044 kcal/mol	2.28 ± 0.089 kcal/mol	2.25 ± 0.057 kcal/mol
SAGPNFKIEIVPNPNGMEPIATIRPPGRTIVIYRNSNGGYHVQRFDPNNGKPVKQFNMPAEEIIKEILSAGG [r19_188_TrROS]	0.348 ± 0.1 kcal/mol	0.655 ± 0.34 kcal/mol	0.551 ± 0.19 kcal/mol
SAGPPDWKPIAEFEYNIPMPPGETASEIENEILERIRPQGIKYVTIPVQYDPENGWIQVDVEIWVPPGASAG [r5_924_TrROS]	0.898 ± 0.03 kcal/mol	0.849 ± 0.16 kcal/mol	0.891 ± 0.11 kcal/mol
SAGPPEFELVGEFEAEAPGGVPVRVRVIRLPGGDVLVVVTHPDDTVTLGFIPAETGEWHLALSFPADVLSAG [r5_750_TrMRF]	2.82 ± 0.057 kcal/mol	2.369 ± 0.014 kcal/mol	2.58 ± 0.057 kcal/mol
SAGPPIWIRAEIEHPRPNPDDGEPQERKREVWIRLPEDLLENGMPVEELAKELASNYPGYKVKIDEILSAGG [r19_110_TrROS]	0.552 ± 0.026 kcal/mol	-0.915 ± 0.38 kcal/mol	0.159 ± 0.15 kcal/mol
SAGPTVRIHLPGFEPIRFPPGDELALPFPNGYYLIIRRKPDGEVEVFPMGGEERKLPDADEVEIYMFPASAG [r5_869_TrROS]	0.665 ± 0.11 kcal/mol	1.32 ± 0.15 kcal/mol	1.07 ± 0.13 kcal/mol
SAGPTVTVELEIRLPPELRGLSPEELAELLARELEEAGYTVEVVEVEEEDGYVTVRVRVTVPLPPPPPESAG [r5_80_TrROS_Hall]	3.59 ± 0.11 kcal/mol	3.29 ± 0.13 kcal/mol	3.52 ± 0.13 kcal/mol
SAGPVIATADVEVYEDGTAKITLTLRTLTENGELLPDVTLPITLPLPPGSKATITVNLDDGEITITVGDSAG [r5_179_TrMRF]	4.07 ± 0.12 kcal/mol	3.79 ± 0.16 kcal/mol	3.96 ± 0.11 kcal/mol
SAGPVLLELESPSGGRYRIALPPNVTEIRRVGDRFIIRLPDGFSLVIEVDEDEPPSTLNDIKILAVIPSAGG [r19_274_TrMRF]	2.19 ± 0.03 kcal/mol	2.41 ± 0.045 kcal/mol	2.38 ± 0.043 kcal/mol
SAGPVVEVKPLETQALPDGSVRVVAEVTIKDPNSEKTTVVTVEATARVAPDGRPVSIEEIVEKAIKELKSAG [r5_604_JUSTAS]	0.801 ± 0.043 kcal/mol	1.26 ± 0.046 kcal/mol	1.06 ± 0.057 kcal/mol
SAGPYYIITVTIPLPNLSPDLQEDFPGQKVTFMFIVDPGMDMEQKRQIKEELRDFGIKDVDIMPADDIKSAG [r5_60_TrROS]	1.27 ± 0.026 kcal/mol	2.58 ± 0.03 kcal/mol	2.2 ± 0.1 kcal/mol
SAGQIVTTDPATGVTTVTIPFPDGSYATITITVEKLTPDKESIVSVDVDFKDKGKKVVPAAVLVEEILSSAG [r5_842_JUSTAS]	0.25 ± 0.084 kcal/mol	1.07 ± 0.11 kcal/mol	0.851 ± 0.17 kcal/mol
SAGQLPPGETYTAEIEIRKNEPITLEEIAKKLPGYEFDSVKVEPMPDGWTRITITMTPGDVDKIQDAIRSAG [r5_554_TrROS]	0.92 ± 0.044 kcal/mol	1.87 ± 0.031 kcal/mol	1.65 ± 0.092 kcal/mol
SAGRFIRIRFKDPGMSMDNLVKEIKEELGIPPDHKVTIDWEPDPNGGYEITIQVDDPQVRDKILEALRSAGG [r19_215_TrROS]	3.46 ± 0.1 kcal/mol	2.5 ± 0.081 kcal/mol	2.97 ± 0.15 kcal/mol
SAGRIHFMDSPSQARDQAEENNYPIVIGMDKGSGWMQIAIYKGGKPKPIRQIPPNNPEINRFIKKLGFTSAG [r5_458_TrROS]	0.149 ± 0.093 kcal/mol	-0.14 ± 0.16 kcal/mol	0.0603 ± 0.14 kcal/mol
SAGRIRKAIREAFGMDITSIDIDVKENPNGSKKVEIDIHMNNPSQRRRMADAIIEELGYPIKEIEITPMSAG [r5_542_TrROS]	0.748 ± 0.24 kcal/mol	0.558 ± 0.2 kcal/mol	0.629 ± 0.17 kcal/mol
